# Experimental data taken from patent US20220175781A1, “CD40L COMPOSITIONS AND METHODS FOR TUNABLE REGULATION” (Obsidian Therapeutics, Inc., priority 2019, published 2022).
# Where “and” joins values, the source holds several entries; their conditions need not be identical. Identical values can stand only once.
# B1: OT-001967: ER regulated CD40L construct with varied linker length (protein)
# chain: MSLALSLTADQMVSALLDAEPPILYSEYDPTRPFSEASMMGLLTNLADRELVHMINWAKRVPGFVDLTLHDQVHLLECAWMEILMIGLVWRSMEHPGKLLFAPNLLLDRDQGKCVEGGVEIFDMLLATSSRFRMMNLQGEEFVCLKSIILLNSGVYTFLSSTLKSLEEKDHIHRVLDKITDTLIHLMAKAGLTLQQQHQRLAQLLLILSHIRHMSNKRMEHLYSMKCKNVVPLSDLLLEMLDAHRLGSMIETYNQTSPRSAATGLPISMKIFMYLLTVFLITQMIGSALFAVYLHRRLDKIEDERNLHEDFVFMKTIQRCNTGERSLSLLNCEEIKSQFEGFVKDIMLNKEETKKENSFEMQKGDQNPQIAAHVISEASSKTTSVLQWAEKGYYTMSNNLVTLENGKQLTVKRQGLYYIYAQVTFCSNREASSQAPFIASLCLKSPGRFERILLRAANTHSSAKPCGQQSIHLGGVFELQPGASVFVNVTDPSQVSHGTGFTSFGLLKL
# B2: OT-002035: CD40L-ecDHFR construct of Table 39 (protein)
# chain: MSGISLIAALAVDRVIGMENAMPWNLPADLAWFKRNTLNKPVIMGRHTWESIGRPLPGRKNIILSSQPGTDDRVTWVKSVDEAIAACGDVPEIMVIGGGRVREQFLPKAQKLYLTHIDAEVEGDTHFPDYEPDDWESVFSEFHDADAQNSHSYCFEILERRHMIETYNQTSPRSAATGLPISMKIFMYLLTVFLITQMIGSALFAVYLHRRLDKIEDERNLHEDFVFMKTIQRCNTGERSLSLLNCEEIKSQFEGFVKDIMLNKEETKKENSFEMQKGDQNPQIAAHVISEASSKTTSVLQWAEKGYYTMSNNLVTLENGKQLTVKRQGLYYIYAQVTFCSNREASSQAPFIASLCLKSPGRFERILLRAANTHSSAKPCGQQSIHLGGVFELQPGASVFVNVTDPSQVSHGTGFTSFGLLKL
# B3: OT-002034: TMP regulated CD40L construct stably expressed in Jurkat cells (protein)
# chain: MSGISLIAALAVDRVIGMENAMPWNLPADLAWFKRNTLNKPVIMGRHTWESIGRPLPGRKNIILSSQPGTDDRVTWVKSVDEAIAACGDVPEIMVIGGGRVQEQFLPKAQKLYLTHIDAEVEGDTHFPDYEPDDWESVFSEFHDADAQNSHSYCFEILERRHMIETYNQTSPRSAATGLPISMKIFMYLLTVFLITQMIGSALFAVYLHRRLDKIEDERNLHEDFVFMKTIQRCNTGERSLSLLNCEEIKSQFEGFVKDIMLNKEETKKENSFEMQKGDQNPQIAAHVISEASSKTTSVLQWAEKGYYTMSNNLVTLENGKQLTVKRQGLYYIYAQVTFCSNREASSQAPFIASLCLKSPGRFERILLRAANTHSSAKPCGQQSIHLGGVFELQPGASVFVNVTDPSQVSHGTGFTSFGLLKL
# Tests used:
# [1] = system: T cells (CD4 and CD8 positive); test: Bazedoxifene dose response, CD40L MFI in CD4 and CD8 positive T cells (day 4, freeze/thaw, restimulation); assay type: cell-based
# Method: Dose response with Bazedoxifene in T cells were conducted for OT-001966, OT-001967, OT-001666. Expression of CD40L was measured at (a) day 4 after transduction, (b) after freezing and thawing the cells or (c) after freezing and thawing the cells followed by restimulation with CD3/CD28 beads. The CD40L MFI (median fluorescence intensity) within CD4 and CD8 positive subpopulations is shown in Table 34 and Table 35 respectively.
# Jurkat cells [2] = test: Linker length, ER regulated CD40L, % CD40L positive Jurkat cells; assay type: cell-based
# Method: Jurkat cells were lentivirally transduced and 24 hours after transduction were treated with DMSO or 1 μM Bazedoxifene for another 24 hours and analyzed by flow cytometry for surface expression of CD40L. […] In Table 33, SR indicates stabilization ratio.
# HEK293T cells = test: CD40L-ecDHFR constructs, CD40L surface expression in transfected HEK293T cells; assay type: cell-based, human; settings: for SR (for % CD40L) / TMP/vehicle ratio of CD40L median fluorescence intensity: TMP (50 μM) versus Vehicle
# Method: HEK293T cells were transiently transfected with the constructs in Table 39 (1 μg of DNA). 24 hours after transfection, the media was removed and replaced with fresh medium containing 50 μM TMP or DMSO. Another 24 hours later cells were analyzed by flow cytometry for CD40L surface expression. Table 39 provides CD40L expression as both % CD40L positive cells and the Median fluorescence intensity (MFI) values.
# Jurkat cells [3] = test: In vivo CD40L regulation in Jurkat cells harvested from bone marrow of NSG mice; settings: for CD40L MFI values / Percent CD40L positive cells: Jurkat cells from bone marrow, day 16
# Description: Jurkat cells stably expressing OT-001661, OT-002034 were intravenously infused into 8-week old NSG mice (20 million cells per mouse). Starting by day 15, mice were orally dosed according to the study design shown in Table 42 and Jurkat cells were harvested on day 16 from the bone marrow and analyzed by FACS. In Tables 41 and 42, TMP refers to Trimethoprim and all dosing is relative to “0 hr” time point on day 16. The results are shown in Table 43 and Table 44 where “EV” refers to empty vector control.
# [4] = Jurkat cells from bone marrow of mice treated with TMP versus vehicle control or empty vector
# [5] = individual mice, TMP 500 mg/kg 3x oral
molecule,measurement,setting,value
B1,CD40L expression (MFI),"[1]; CD4+ cells, Day 5, Bazedoxifene 0.01 nM",473
same,CD40L expression (MFI),"[1]; CD4+ cells, Day 5, Bazedoxifene 0.1 nM",474
same,CD40L expression (MFI),"[1]; CD4+ cells, Day 5, Bazedoxifene 1 nM",483
same,CD40L expression (MFI),"[1]; CD4+ cells, Day 5, Bazedoxifene 10 nM",497
same,CD40L expression (MFI),"[1]; CD4+ cells, Day 5, Bazedoxifene 100 nM",630
same,CD40L expression (MFI),"[1]; CD4+ cells, Day 5, Bazedoxifene 1000 nM",998
same,CD40L expression (MFI),"[1]; CD4+ cells, Day 5, Bazedoxifene 10000 nM",1000
same,CD40L expression (MFI),"[1]; CD4+ cells, Post Thaw, Bazedoxifene 0.01 nM",156
same,CD40L expression (MFI),"[1]; CD4+ cells, Post Thaw, Bazedoxifene 0.1 nM",160
same,CD40L expression (MFI),"[1]; CD4+ cells, Post Thaw, Bazedoxifene 1 nM",161
same,CD40L expression (MFI),"[1]; CD4+ cells, Post Thaw, Bazedoxifene 10 nM",172
same,CD40L expression (MFI),"[1]; CD4+ cells, Post Thaw, Bazedoxifene 100 nM",200
same,CD40L expression (MFI),"[1]; CD4+ cells, Post Thaw, Bazedoxifene 1000 nM",223
same,CD40L expression (MFI),"[1]; CD4+ cells, Post Thaw, Bazedoxifene 10000 nM",457
same,CD40L expression (MFI),"[1]; CD4+ cells, Restim, Bazedoxifene 0.01 nM",913
same,CD40L expression (MFI),"[1]; CD4+ cells, Restim, Bazedoxifene 0.1 nM",922
same,CD40L expression (MFI),"[1]; CD4+ cells, Restim, Bazedoxifene 1 nM",913
same,CD40L expression (MFI),"[1]; CD4+ cells, Restim, Bazedoxifene 10 nM",1131
same,CD40L expression (MFI),"[1]; CD4+ cells, Restim, Bazedoxifene 100 nM",1549
same,CD40L expression (MFI),"[1]; CD4+ cells, Restim, Bazedoxifene 1000 nM",1232
same,CD40L expression (MFI),"[1]; CD4+ cells, Restim, Bazedoxifene 10000 nM",291
same,CD40L expression (MFI),"[1]; CD8+ cells, Day 5, Bazedoxifene 0.01 nM",153
same,CD40L expression (MFI),"[1]; CD8+ cells, Day 5, Bazedoxifene 0.1 nM",153
same,CD40L expression (MFI),"[1]; CD8+ cells, Day 5, Bazedoxifene 1 nM",157
same,CD40L expression (MFI),"[1]; CD8+ cells, Day 5, Bazedoxifene 10 nM",158
same,CD40L expression (MFI),"[1]; CD8+ cells, Day 5, Bazedoxifene 100 nM",226
same,CD40L expression (MFI),"[1]; CD8+ cells, Day 5, Bazedoxifene 1000 nM",424
same,CD40L expression (MFI),"[1]; CD8+ cells, Day 5, Bazedoxifene 10000 nM",392
same,CD40L expression (MFI),"[1]; CD8+ cells, Post Thaw, Bazedoxifene 0.01 nM",108
same,CD40L expression (MFI),"[1]; CD8+ cells, Post Thaw, Bazedoxifene 0.1 nM",105
same,CD40L expression (MFI),"[1]; CD8+ cells, Post Thaw, Bazedoxifene 1 nM",108
same,CD40L expression (MFI),"[1]; CD8+ cells, Post Thaw, Bazedoxifene 10 nM",114
same,CD40L expression (MFI),"[1]; CD8+ cells, Post Thaw, Bazedoxifene 100 nM",149
same,CD40L expression (MFI),"[1]; CD8+ cells, Post Thaw, Bazedoxifene 1000 nM",178
same,CD40L expression (MFI),"[1]; CD8+ cells, Post Thaw, Bazedoxifene 10000 nM",263
same,CD40L expression (MFI),"[1]; CD8+ cells, Restim, Bazedoxifene 0.1 nM",269
same,CD40L expression (MFI),"[1]; CD8+ cells, Restim, Bazedoxifene 1 nM",274
same,CD40L expression (MFI),"[1]; CD8+ cells, Restim, Bazedoxifene 10 nM",265
same,CD40L expression (MFI),"[1]; CD8+ cells, Restim, Bazedoxifene 100 nM",326
same,CD40L expression (MFI),"[1]; CD8+ cells, Restim, Bazedoxifene 1000 nM",445
same,CD40L expression (MFI),"[1]; CD8+ cells, Restim, Bazedoxifene 10000 nM",372
same,Percent of Jurkat cells expressing CD40L,Jurkat cells [2]; 1 μM Bazedoxifene,30%
same,SR,"Jurkat cells [2]; 1 μM Bazedoxifene versus DMSO, % CD40L positive Jurkat cells",15
same,Percent of Jurkat cells expressing CD40L,Jurkat cells [2]; DMSO,2%
B2,TMP mediated expression of CD40L,"HEK293T cells; HEK293T cells, 50 μM TMP or DMSO 24 hours",exception
same,% CD40L,HEK293T cells; TMP (50 μM),23.8%
same,MFI (Median),HEK293T cells; TMP (50 μM),8311
same,SR (for % CD40L),HEK293T cells,0.89
same,TMP/vehicle ratio of CD40L median fluorescence intensity,HEK293T cells,0.97
same,% CD40L,HEK293T cells; Vehicle,26.7%
same,MFI (Median),HEK293T cells; Vehicle,8535
B3,CD40L MFI values,"Jurkat cells [3]; Average, TMP 500 mg/kg 3x oral",520.75
same,Percent CD40L positive cells,"Jurkat cells [3]; Average, TMP 500 mg/kg 3x oral",53.4%
same,CD40L MFI values,"Jurkat cells [3]; Average, Vehicle",93.65
same,Percent CD40L positive cells,"Jurkat cells [3]; Average, Vehicle",1.82%
same,% CD40L positive cells,Jurkat cells [3]; [4],increased
same,CD40L values (MFI),Jurkat cells [3]; [4],increased
same,CD40L MFI values,Jurkat cells [3]; [5],608 and 542 and 505 and 428
same,Percent CD40L positive cells,Jurkat cells [3]; [5],61% and 56.3% and 52.2% and 44.1%
same,CD40L MFI values,"Jurkat cells [3]; individual mice, Vehicle",101 and 80.6 and 97.9 and 95.1
same,Percent CD40L positive cells,"Jurkat cells [3]; individual mice, Vehicle",2.36% and 0.83% and 2.17% and 1.92%
same,% CD40L,HEK293T cells; TMP (50 μM),71.1%
same,MFI (Median),HEK293T cells; TMP (50 μM),20569
same,SR (for % CD40L),HEK293T cells,2.44
same,TMP/vehicle ratio of CD40L median fluorescence intensity,HEK293T cells,2.59
same,% CD40L,HEK293T cells; Vehicle,29.1%
same,MFI (Median),HEK293T cells; Vehicle,7957
